Data on 72 sequences can be found in the supplement of paper PMC10567573.

± gives the standard deviation.

The nature of this series: protein stability index of a GFP-peptide fusion (GPS, HEK-293T) (PSI 1-6); higher = more stable. Conditions: c terminus: a fixed tail appended.
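Also: 24-mer peptide tiles fused after GFP, lentivirally expressed, FACS-sorted into six equal bins by GFP/DsRed ratio, decoded by Illumina sequencing, PSI is the read-weighted mean bin number.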

On to EIIKVTEQLIEAISNGDFESYTKM [CAMK2A], for which the protein stability index is, setting by setting: (treatment: DMSO) 2.27 ± 0.53; (treatment: MLN4924 1 uM, 8 h) 1.91 ± 0.61.
Regarding EKDQEQVVMNLDSRLLIFPLYICC [GMCL1], the protein stability index was 2.74 ± 0.75 (treatment: DMSO) and 2.74 ± 0.67 (treatment: MLN4924 1 uM, 8 h).
The like results for EKKDLKLEPPEEEIIEGNTKSHIM [NECAB1] were, in that order, 5.46 ± 0.17 and 5.43 ± 0.14.
Regarding EKNKHIFPASRWEPYDPEKKWDKY [FAM50A], the protein stability index by setting is: (treatment: DMSO) 3.52 ± 0.2; (treatment: MLN4924 1 uM, 8 h) 3.6 ± 0.14.
The like results for EKRLEGQEEEEDNRDSSMKLSFRA [CHGA] were, in that order, 5.1 ± 0.75 and 5.19 ± 0.38.
Taken in the same sequence, the figures for EKRSRGQVLFDKVCEHLNLLEKDY [EPB41L3] were 2.87 ± 0.46 and 3.01 ± 0.62.
Taken in the same sequence, the figures for EKSVLKEVSHPFLIRLFWTWHDER [PRKX] were 2.56 ± 0.29 and 2 ± 0.32.
Sequence ELEKIGSGEFGSVFKCVKRLDGCI [WEE1] registered a protein stability index (treatment: DMSO) of 2.29 ± 0.25 and a protein stability index (treatment: MLN4924 1 uM, 8 h) of 2.35 ± 0.24.
Taken in the same sequence, the figures for ELGGKNPAIIFEDANLDECIPATV [ALDH8A1] were 4.54 ± 0.28 and 4.72 ± 0.27.
As to ELKRRVAEELALEQAKKESEDQKR [CHCHD3], the protein stability index was determined as 4.14 ± 0.32 (treatment: DMSO) and 4.37 ± 0.082 (treatment: MLN4924 1 uM, 8 h).
The like results for ELLLFAVGFIMAGTPMALIVISYI [OR3A1] were, in that order, 2.56 ± 0.033 and 3.09 ± 0.28.
Taken in the same sequence, the figures for ELNAIMNKNSTDVKGCSMYVALFP [DCTD] were 2.71 ± 0.26 and 2.35 ± 0.71.
Taken in the same sequence, the figures for ELQQELSLKDQERVAEVSRVRVEL [LRRC45] were 3.5 ± 0.17 and 3.78 ± 0.24.
Turning to ELSEEGAEGRVVGRKDITSILRAP [MOSPD3], the protein stability index reads like this: (treatment: DMSO) 4.82 ± 0.11; (treatment: MLN4924 1 uM, 8 h) 4.78 ± 0.18.
Consider ENAAFKDVALVLTVLLEEETLEAS [TOR1AIP2], for which the protein stability index was determined as 2.31 ± 0.33 (treatment: DMSO) and 2.4 ± 0.34 (treatment: MLN4924 1 uM, 8 h).
The like results for ENAELESRIQEWYEFQIPYICPDY [KRT36] were, in that order, 2.77 ± 0.46 and 2.9 ± 0.44.
For the sequence ENILADNSVNDQTKILVVNAAYFV [SERPINB5], the protein stability index amounted to 2.25 ± 0.21 (treatment: DMSO) and 2.34 ± 0.17 (treatment: MLN4924 1 uM, 8 h).
The like results for ENSICVGFKRDYYLIRVDGKGSIK [VPS39] were, in that order, 2.16 ± 0.54 and 2.35 ± 0.37.
Taken in the same sequence, the figures for ENYLNRCMDQERLRRESTSQKEMD [FCHO1] were 4.24 ± 0.28 and 4.56 ± 0.3.
Taken in the same sequence, the figures for EPGGPGWLPESDCETVTCCLFSER [SMAD6] were 3.96 ± 0.35 and 4.16 ± 0.42.
As to EQEDPADYCKGGYHPVKIGDLFNG [SRPK2], the protein stability index is 3.9 ± 0.32 (treatment: DMSO) and 3.98 ± 0.47 (treatment: MLN4924 1 uM, 8 h).
Taken in the same sequence, the figures for EQLRREKIDLENTLEQEQEALVNR [CCDC6] were 5.2 ± 0.27 and 5.42 ± 0.1.
Consider EQLSVLASCLQELFKAHFRGEVLP [INTS3], for which the protein stability index by setting is: (treatment: DMSO) 2.52 ± 0.42; (treatment: MLN4924 1 uM, 8 h) 2.5 ± 1.1.
Taken in the same sequence, the figures for ERGLKKIRLGIEGYPTYKEKVKKR [BTBD10] were 3.59 ± 0.3 and 3.66 ± 0.33.
Taken in the same sequence, the figures for ERKGWLAPSPGVKEQAIWKHPQPA [PKD2L1] were 3.52 ± 0.21 and 3.73 ± 0.41.
The like results for ERLERAVSDRLAPGAPRGNPPKAS [MYCL] were, in that order, 4.84 ± 0.44 and 5.23 ± 0.26.
Sequence ERMPPSGAARSFQEVTEPAVVAVD [PXN] yielded a protein stability index (treatment: DMSO) of 4.95 ± 0.17 and a protein stability index (treatment: MLN4924 1 uM, 8 h) of 5.29 ± 0.31.
The like results for ERRQTLNLISLLALRVLAEQNIIP [TENT5C] were, in that order, 2.26 ± 0.88 and 2.15 ± 0.24.
Taken in the same sequence, the figures for ERSMSENAVRQNGQLVRNDSLWHR [MFF] were 3.84 ± 0.42 and 3.69 ± 0.4.
Taken in the same sequence, the figures for ERYDPNIDQWSMLGDMQTAREGAG [KLHL12] were 4.2 ± 0.25 and 4.33 ± 0.19.
Take ESESPQSHRAAGSGVSDYDYLDLD [TRIM9]: the protein stability index stood at 5.5 ± 0.19 (treatment: DMSO) and 5.35 ± 0.2 (treatment: MLN4924 1 uM, 8 h).
Taken in the same sequence, the figures for ESGLGHFSLRVHTGCHKKLGPEAR were 3.24 ± 0.46 and 3.32 ± 0.24.
Taken in the same sequence, the figures for ESIDFDQGELADQDVDPVHNLIEQ [FBXO33] were 5.51 ± 0.16 and 5.22 ± 0.26.
Sequence ESPRWLYSQGRLSEAEEALYLIAK [SLC22A15] had a protein stability index (treatment: DMSO) of 2.75 ± 0.21 and a protein stability index (treatment: MLN4924 1 uM, 8 h) of 2.66 ± 0.45.
Taken in the same sequence, the figures for ESSAKSKINVNEIFYDLVRQINRK [RAP1B] were 1.92 ± 0.38 and 1.96 ± 0.25.
ETKGQINNSIKDLTDGHFENILAD [SERPINB5]: the protein stability index stood at 4.84 ± 0.42 (treatment: DMSO) and 4.9 ± 0.32 (treatment: MLN4924 1 uM, 8 h).
Taken in the same sequence, the figures for ETRVTSGSMEALNLKQLRKRGSIP [PPFIA4] were 4.6 ± 0.07 and 4.75 ± 0.22.
Taken in the same sequence, the figures for ETTSQQERLQAIAEKRKRQAEIEN [PALM] were 4.94 ± 0.14 and 5.06 ± 0.12.
Taken in the same sequence, the figures for EVAAKNQSLEGDTTKGTSEMSEKR [MLH1] were 5.15 ± 0.26 and 5.46 ± 0.56.
EVLRMCVAVKKKLQLYFWKDREFH [VPS39] had a protein stability index (treatment: DMSO) of 2.49 ± 0.34 and a protein stability index (treatment: MLN4924 1 uM, 8 h) of 2.55 ± 0.34.
Regarding EVLSLGVQVPEAWEELLTMKVEAK [ZSCAN9], the protein stability index is, setting by setting: (treatment: DMSO) 3.53 ± 0.67; (treatment: MLN4924 1 uM, 8 h) 3.45 ± 0.22.
The like results for EYAWCLVRSKYNDDIRKGIVLLEE [FIS1] were, in that order, 2.13 ± 0.43 and 2.03 ± 0.26.
On to EYHQPQAPANVAKIQLRLAGQKRK [LOXL2], for which the protein stability index by setting is: (treatment: DMSO) 4.34 ± 0.43; (treatment: MLN4924 1 uM, 8 h) 4.54 ± 0.4.
The like results for FAFSNGYLASLCMCFGPKKVKPAE [SLC29A1] were, in that order, 2 ± 0.36 and 2.34 ± 0.21.
Taken in the same sequence, the figures for FAIGVCTGLVGLFVDFFVRLFTQL [CLCN6] were 2.65 ± 0.52 and 2.32 ± 0.56.
Turning to FAQRTFDYELLQMLQIVVGVRDSG [PCDHGC5], the protein stability index (treatment: DMSO) was 3.01 ± 0.53 and the protein stability index (treatment: MLN4924 1 uM, 8 h) amounted to 2.74 ± 0.84.
Taken in the same sequence, the figures for FAYLEDLHSEFDEQHGKKVPTVSR [SEC22B] were 3.64 ± 0.24 and 3.73 ± 0.33.
Turning to FCQTDQTCICYLCMFQEHKNHSTV [TRIM29], the protein stability index is 2.2 ± 0.085 (treatment: DMSO) and 2.66 ± 0.32 (treatment: MLN4924 1 uM, 8 h).
Taken in the same sequence, the figures for FCSVIRINSTAPFEEQENYFLLCD [ZNF277] were 2.46 ± 0.7 and 1.83 ± 0.15.
Taken in the same sequence, the figures for FDRKKKSISLMYGGSKRKSSFFSS [SLA] were 2.53 ± 0.22 and 2.68 ± 0.4.
Taken in the same sequence, the figures for FEAAFGTTPSTSSSSSFDPSVFDG [SNAP91] were 4.61 ± 0.12 and 4.53 ± 0.22.
As for FEDPRDAEDAVYGRDGYDYDGYRL [SRSF1], the protein stability index is, setting by setting: (treatment: DMSO) 4.73 ± 0.18; (treatment: MLN4924 1 uM, 8 h) 4.8 ± 0.14.
Regarding FFEILRLFFPVIYDVKYLMKSCKN [CNOT7], the protein stability index by setting is: (treatment: DMSO) 2.37 ± 0.9; (treatment: MLN4924 1 uM, 8 h) 2.87 ± 0.048.
Taken in the same sequence, the figures for FFEKPDYDYLRKLFTDLFDRKGYM [CSNK1G3] were 2.05 ± 0.58 and 2.5 ± 0.25.
The like results for FHELQMQVTASDSGDPPLSSNVSL [PCDHGA10] were, in that order, 2.93 ± 0.49 and 3.38 ± 0.54.
On to FHHIPSTCQRVNGIKVQNGGIVTD [SLC19A2], for which the protein stability index was 2.47 ± 0.55 (treatment: DMSO) and 3 ± 0.41 (treatment: MLN4924 1 uM, 8 h).
FHLGLEDILMEEEEGVVGGLSGGA [TFE3]: the protein stability index reads like this: (treatment: DMSO) 3.75 ± 0.46; (treatment: MLN4924 1 uM, 8 h) 4.3 ± 0.46.
Consider FICQATGDPRPKIVWNKKGKKVSN [PTPRD], for which the protein stability index turned out to be 2.84 ± 0.37 (treatment: DMSO) and 3.35 ± 0.68 (treatment: MLN4924 1 uM, 8 h).
The like results for FIDGKFLPCSSYIDSYDPSTGEVY [ALDH8A1] were, in that order, 2.44 ± 1.2 and 2.66 ± 0.11.
Taken in the same sequence, the figures for FIEGYCTPEEVIWEALNMMGLYDG [MAGEA10] were 2.48 ± 0.24 and 2.17 ± 0.26.
Taken in the same sequence, the figures for FKAVLDGLDVLLAQEVRPRRWKLQ [PRAME] were 2.25 ± 0.19 and 2.41 ± 0.35.
On to FKHPVIGVHVRRTDKVGTEAAFHP [FUT8], for which the protein stability index turned out to be 2.98 ± 0.31 (treatment: DMSO) and 3.13 ± 0.23 (treatment: MLN4924 1 uM, 8 h).
Taken in the same sequence, the figures for FLHPDLGVGGAERLVLDAALALQA [ALG2] were 2.32 ± 0.43 and 2.27 ± 0.23.
Taken in the same sequence, the figures for FLVTMANIGINGNHSLETCETTLF [PTGFR] were 2.88 ± 0.88 and 2.5 ± 1.1.
With FNKDLVQDCGFEHLVPVIEMWADQ [CEP70], the protein stability index worked out at 2.45 ± 0.45 (treatment: DMSO) and 2.65 ± 0.61 (treatment: MLN4924 1 uM, 8 h).
The like results for FNNVVEQNFKNRESYPEDTVFYIP [DLC1] were, in that order, 3.01 ± 0.24 and 3.16 ± 0.2.
The like results for FPAEQYYRFHEHWRFVLQRLVFLA [TSN] were, in that order, 2.44 ± 0.42 and 2.22 ± 0.27.
Taken in the same sequence, the figures for FPNRTDQQCQYRWLRVLNPDLVKG [MYBL2] were 2.4 ± 0.34 and 2.44 ± 0.53.
On to FPSTSYNARLQAMWGQSLLPPVST [TNXB], for which the protein stability index stood at 2.36 ± 0.32 (treatment: DMSO) and 2.51 ± 0.35 (treatment: MLN4924 1 uM, 8 h).
Taken in the same sequence, the figures for FQAHRDKYEKLRGDVAIKLKFLEE [ARFIP2] were 2.89 ± 0.45 and 3.15 ± 0.25.
Regarding FQSISLRKIQFNFPYFRSDRDKRD [CLCN6], the protein stability index runs as follows: (treatment: DMSO) 2.3 ± 0.34; (treatment: MLN4924 1 uM, 8 h) 2.75 ± 0.52.
The like results for FRAGMKKEAVQNERDRISTRRSSY [HNF4A] were, in that order, 4.2 ± 0.21 and 4.17 ± 0.22.
